{"source": "paper PMC4858563", "molecular_target": "Tula virus (TULV) Gn glycoprotein on virions (Tula virus (TULV), strain Moravia)", "test": "cryo-EM structure"}
{"substance": "Tula virus (TULV) Gn glycoprotein on virions (natural protein)", "values": [{"measurement": "stoichiometry N", "result": 4}]}
